Columns and labels:
[1] = molecular target: ARO AldDh (ARO 2-aminomuconic-6-semialdehyde dehydrogenase homolog) from Micromonospora rosaria (Micromonospora rosaria); test: SEC; purified ARO AldDh on analytical Superdex 200 10/300 GL in Buffer E (10 mM Tris-HCl pH 8.0, 0.5 M NaCl, 0.2 mM NAD+, 1 mM DTT, 5% glycerol); oligomer of the enzyme with itself
[2] = molecular target: T1, ARO AldDh (2-aminomuconic-6-semialdehyde dehydrogenase homolog) (Micromonospora rosaria, UniProt A0A136PUC7); test: coupled assay, absorption spectra, product 2-aminomuconate at […] nm; type: biochemical; settings: 2-AMS generated in situ from 0.5 µM 2-AP by ARO dioxygenase; 20 µM NAD+, 100 mM potassium phosphate pH 7.5
T1 construct: gene AWW66_10300; E. coli BL21(DE3), codon-optimized, untagged (pLD69); ammonium sulfate and HIC enriched; primers imply N-term MTGLWSPTL, C-term VDLS
T1 sequence (A0A136PUC7 1-502): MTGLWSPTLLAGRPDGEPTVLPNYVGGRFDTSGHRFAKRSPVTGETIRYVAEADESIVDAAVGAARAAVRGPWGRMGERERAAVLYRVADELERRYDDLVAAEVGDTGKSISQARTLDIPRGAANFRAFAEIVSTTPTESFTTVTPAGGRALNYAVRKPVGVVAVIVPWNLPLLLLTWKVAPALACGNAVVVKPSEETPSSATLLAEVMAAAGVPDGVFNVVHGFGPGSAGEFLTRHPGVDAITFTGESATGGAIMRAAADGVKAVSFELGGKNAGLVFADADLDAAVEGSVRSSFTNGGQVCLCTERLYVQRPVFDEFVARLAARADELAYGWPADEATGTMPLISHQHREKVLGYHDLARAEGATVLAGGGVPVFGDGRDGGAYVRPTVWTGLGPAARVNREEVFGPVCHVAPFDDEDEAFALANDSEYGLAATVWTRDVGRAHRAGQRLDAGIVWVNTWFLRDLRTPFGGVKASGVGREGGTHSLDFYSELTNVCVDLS

[3] = molecular target: ARO dioxygenase beta subunit (2-aminophenol-1,6-dioxygenase beta subunit) from Micromonospora rosaria, His-tagged (Micromonospora rosaria); test: crystal structure; ARO dioxygenase, sitting drop vapor diffusion at room temperature; 0.1 M Tris pH 8.0, 0.5 M ammonium, 28% PEG 8000; 1.75 Å, P1 cell
[4] = substrate: Nc1ccc(Cl)cc1O; test: purified protein; type: biochemical, Micromonospora rosaria; settings: 10 mM sodium phosphate pH 8.0, room temperature, 27 µg enzyme in 1 mL
[5] = substrate: Nc1ccccc1O; test: purified protein; type: biochemical, Micromonospora rosaria; settings: 10 mM sodium phosphate pH 8.0, room temperature, 27 µg enzyme in 1 mL
[6] = substrate: Oc1ccccc1O; test: purified protein; type: biochemical, Micromonospora rosaria; settings: 10 mM sodium phosphate pH 8.0, room temperature, 27 µg enzyme in 1 mL

Q: “ARO AldDh (ARO 2-aminomuconic-6-semialdehyde dehydrogenase homolog) from Micromonospora rosaria (enzyme)” was tested. Which stoichiometry N [1] did it give?
A: Its stoichiometry N is 3.

Q: How did the “coupled assay, absorption spectra, product 2-aminomuconate at 326 nm” value [2] turn out when N/C(=C\C=C\C=O)C(=O)O [2-aminomuconate 6-semialdeyde] was run?
A: Its value is “ability to convert 2-aminomuconate 6-semialdeyde (2-AMS) to 2-aminomuconate in vitro”.

Q: With “ARO dioxygenase beta subunit (2-aminophenol-1,6-dioxygenase beta subunit) from Micromonospora rosaria, His-tagged (natural protein)” as the molecule, how does the stoichiometry N [3] read?
A: Its stoichiometry N is 2.

B1: ARO dioxygenase (2-aminophenol-1,6-dioxygenase; ARO AmnA and AmnB) (Micromonospora rosaria) (protein)
chain: MSRVFRVPLAPTRGGATTAPRTPAPAPAPTRPGIVAGCLSPHPPHLIYGENPPQNEPRSTGGWETLRWAYERLRARIRDVHKPDVLIVHAPHWITMVGHHVNCVPNPRGLSVEPIFPHLFRYRYDFRTDVELGEAIAEEASGLGLVTRTLRDPRVRVDYATIGALHLANPAWDIPVVSLSANNNPYFYSDASLTEMEVLGEATRLAVEATGRRAVLLASNSLSHLHWHEEPELPEDMEREHPYNNHQYRWDMKLLEAIRRGPTAPLRDLIPEHIEATASETKAGSLTWMLAAMGWPKVAGDVLGYGTIIGTGNAIVEWLPEGSHH
notes: E. coli BL21(DE3) co-expression (codon-optimized; pLD54 alpha, pLD59 beta); beta with C-terminal 6xHis via Gly/Ser linker, tag kept; alpha untagged; 140 kDa dimer of heterodimers; modelled alpha D3-H278, beta T30-G322; iron in beta subunit; primers imply alpha N-term MADRTG, beta N-term MSRVFR; with 2-aminophenol 1,6-dioxygenase alpha subunit
Q: B1 was tested. Which Km [4] did it give?
A: Its Km is 29 µM.

Q: And the Km [5]?
A: The Km was 70 µM.

Q: And the Km [6]?
A: The Km was 14 µM.

Reference: PMC10470539, “Characterization of a novel aromatic substrate-processing microcompartment in Actinobacteria” (mBio, 2023)
